Data published in PMC8236918, “CYRI-A limits invasive migration through macropinosome formation and integrin uptake regulation” (The Journal of Cell Biology, 2021).

Target: untagged full-length RAC1 Q61L (UniProt P63000 1-192, Q61L)
Experiment: SPR; MBP-tagged CYRI immobilised on Sensor chip CM5; purified untagged RAC1 Q61L titrated at different concentrations; steady-state responses fitted to a 1:1 binding model
Details: both partners purified

Kd: ~38 µM
B1: MBP-tagged full-length CYRI-B (natural protein)
chain: MGNLLKVLTCTDLEQGPNFFLDFENAQPTESEKEIYNQVNVVLKDAEGILEDLQSYRGAGHEIREAIQHPADEKLQEKAWGAVVPLVGKLKKFYEFSQRLEAALRGLLGALTSTPYSPTQHLEREQALAKQFAEILHFTLRFDELKMTNPAIQNDFSYYRRTLSRMRINNVPAEGENEVNNELANRMSLFYAEATPMLKTLSDATTKFVSENKNLPIENTTDCLSTMASVCRVMLETPEYRSRFTNEETVSFCLRVMVGVIILYDHVHPVGAFAKTSKIDMKGCIKVLKDQPPNSVEGLLNALRYTTKHLNDETTSKQIRSMLQ
notes: CYRI-B (encoded by FAM49B), full length; source: E. coli BL21, purified (MBPTrap HP, size-exclusion chromatography)
